Laboratory results reported in article PMC7275706.

Columns and labels:
[1] = molecular target: Toxoplasma gondii ERK7 kinase domain, ERK7_(2–358) (Toxoplasma gondii); assay: fluorescence polarisation; competition: unlabeled AC9 constructs titrated against 10 nM fluorescein-AC9 and 100 nM ERK7; single-site inhibition, global fit
[2] = molecular target: Toxoplasma gondii ERK7 kinase domain, ERK7_(2–358); assay: fluorescence polarisation competition; conditions: competition with fluorescein-labeled wild-type AC9
[3] = molecular target: APS 609-621 (Rattus norvegicus) (UniProt Q9Z200); conditions: cited from earlier work
[4] = molecular target: fluorescein-labeled AC9_(419–452) with an additional N-terminal Cys (Toxoplasma gondii); assay: fluorescence polarisation; ERK7 2–358 serially diluted against 10 nM fluorescein-AC9 419–452, 20 μL in 384-well plate; single-site binding, global fit of three replicate experiments
[5] = molecular target: fluorescein-labeled synthetic MEK2_(4–16) peptide (rat) (rat) (UniProt P36506); assay: fluorescence polarisation; ERK7 titrated against 100 nM fluorescein-labeled synthetic MEK2 4–16 peptide; single-site binding, global fit
[6] = molecular target: Shc 423-435 (Homo sapiens) (UniProt P29353); conditions: cited from earlier work

Sequence of Grb2 SH2 (P62993 57-155): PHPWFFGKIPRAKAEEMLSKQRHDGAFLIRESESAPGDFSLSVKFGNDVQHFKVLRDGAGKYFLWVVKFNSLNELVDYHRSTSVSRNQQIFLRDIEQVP

AC9_(R421A/K423A) (domain or fragment)
fold reduction of affinity against wild-type AC9 [1]: 4 fold

AC9_(W438A) (domain or fragment)
Ki [1]: 1600 nM

WT AC9_(401–452) (domain or fragment)
Ki [1]: 15 nM

AC9 wild type R421A; K423A
Ki [2]: 63 nM

Cbl TKB (from UniProt P22681)
Kd [3]: 43 nM

Toxoplasma gondii ERK7 kinase domain, ERK7_(2–358) (domain or fragment)
Kd [4]: 34 nM
Kd [5]: 12 µM

Grb2 SH2 (from UniProt P62993)
Kd [6]: 18 nM
